Target: N-terminal FLAG-tagged D1 (FLAG-D1) (Synechocystis sp. PCC 6803, UniProt P16033 1-344)
Assay: co-IP

B1: Ycf48 assembly factor (natural protein, Synechocystis sp. PCC 6803 (endogenous), UniProt P73069 29-342, looked up)
chain: CSHVPDLAFNPWQEIALETDSTFADIAFTEDPNHGWLVGTKETIFETTDGGDTWEQKLIDLGEEKASFSAVSFSGNEGWITGKPSILLHTTDGGQTWARIPLSEKLPGAPYSIIALGPQTAEMITDLGAIYKTTNGGKNWKALVEGAVGVARTIQRSTDGRYVAVSARGNFYSTWAPGQTEWTPHNRNSSRRLQTMGYGKDGQLWLLARGGQLQFSTDPDAEEWSDVIAPQDKGSWGLLDLSFRTPEEVWVAGASGNLLMSQDGGQTWAKDTGVEDIPANLYRVVFLSPEKGFVLGQDGILLKYNPSTEVAMVP
  stoichiometry N: ~1
